Target: T1, MCT1 (monocarboxylate transporter 1), endogenous (human), P53985
T1 chain: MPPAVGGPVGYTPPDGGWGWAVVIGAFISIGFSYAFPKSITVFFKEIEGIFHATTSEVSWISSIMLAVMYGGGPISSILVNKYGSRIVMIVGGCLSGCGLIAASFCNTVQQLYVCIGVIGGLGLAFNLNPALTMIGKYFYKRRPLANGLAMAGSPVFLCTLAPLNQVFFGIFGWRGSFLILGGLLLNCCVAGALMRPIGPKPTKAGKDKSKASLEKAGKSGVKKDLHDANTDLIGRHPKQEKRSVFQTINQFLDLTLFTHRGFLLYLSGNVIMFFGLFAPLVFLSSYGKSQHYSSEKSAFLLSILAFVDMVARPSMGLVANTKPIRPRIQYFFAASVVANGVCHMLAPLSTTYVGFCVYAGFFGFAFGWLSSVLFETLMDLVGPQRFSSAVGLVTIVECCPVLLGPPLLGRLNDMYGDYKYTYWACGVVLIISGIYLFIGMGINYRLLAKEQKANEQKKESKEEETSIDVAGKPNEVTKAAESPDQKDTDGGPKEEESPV
Assay: tandem affinity purification of CRBN-SF, mass spectrometry
Details: remark: other sources report otherwise

B1: Strep-Flag tagged CRBN (CRBN-SF), Q96SW2 1-442 (protein, human, UniProt Q96SW2 1-442, looked up, not shown: small tags and cut ends)
chain: MAGEGDQQDAAHNMGNHLPLLPAESEEEDEMEVEDQDSKEAKKPNIINFDTSLPTSHTYLGADMEEFHGRTLHDDDSCQVIPVLPQVMMILIPGQTLPLQLFHPQEVSMVRNLIQKDRTFAVLAYSNVQEREAQFGTTAEIYAYREEQDFGIEIVKVKAIGRQRFKVLELRTQSDGIQQAKVQILPECVLPSTMSAVQLESLNKCQIFPSKPVSREDQCSYKWWQKYQKRKFHCANLTSWPRWLYSLYDAETLMDRIKKQLREWDENLKDDSLPSNPIDFSYRVAACLPIDDVLRIQLLKIGSAIQRLRCELDIMNKCTSLCCKQCQETEITTKNEIFSLSLCGPMAAYVNPHGYVHETLTVYKACNLNLIGRPSTEHSWFPGYAWTVAQCKICASHIGWKFTATKKDMSPQKFWGLTRSALLPTIPDTEDEISPDKVILCL
  unique peptides identified in the screen (unique peptides): 6

— patent US20170296524A1
